The text below walks through data of patent publication US20260109774A1 (JUNO THERAPEUTICS, published 2026).

The target of assay [1] is T1, human BCMA amino acid residues 1-54 (linear and conformational peptide libraries) (human, UniProt Q02223 1-54).
T1 construct: Presented as CLIPS peptide arrays (linear peptides and structural mimetics) on a solid support
T1 sequence: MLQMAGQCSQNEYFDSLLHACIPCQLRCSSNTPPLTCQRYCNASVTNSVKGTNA
As to the kind of experiment: CLIPS peptide array, ELISA. The method, then:
(§1) Mapping was carried out using anti-BCMA scFv clones, such as those fused with mouse Fc (scFv-mFc).
(§2) Linear and conformational peptide libraries of amino acid residues 1-54 of human BCMA (set forth as amino acid residues 1-54 of SEQ ID NO:367) were generated based on a combinatorial matrix design. Linear peptides and structural mimetics including single loop, a-helix, 3-turn, combinatorial and linear disulfide bridge mimics, and discontinuous epitope mimics were used, along with positive and negative control peptides, on an amino-functionalized solid support.
(§3) Affinities for binding to the peptides in the epitope library were determined using ELISA. The peptide arrays were incubated with a solution containing the scFv overnight at 4° C. Affinity information was used in iterative screens to define the sequence and conformation of epitopes. Heat maps of affinity information for two or more loops were generated.
Background: In an ELISA, binding on a coated surface is turned into a signal by an enzyme label.

In assay [2] the target is T2, human B-cell maturation antigen (BCMA) on cells (human, UniProt Q02223 1-184).
T2 construct: Recombinant on HEK293 or K562 cells, or endogenous on cell lines (H929, RPMI 8226, OPM2, MM1S, Daudi); also called hBCMA; huBCMA
T2 chain: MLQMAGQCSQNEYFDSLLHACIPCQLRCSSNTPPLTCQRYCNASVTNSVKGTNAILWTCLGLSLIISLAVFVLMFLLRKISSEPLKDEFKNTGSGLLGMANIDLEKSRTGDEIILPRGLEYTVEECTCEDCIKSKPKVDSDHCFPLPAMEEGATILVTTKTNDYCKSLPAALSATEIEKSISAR
As to the kind of experiment: flow cytometry on BCMA-expressing HEK293 cells vs control cells, crude lysate or bacterial supernatant; clone listed in Table E2. As to the method: Specific binding of resulting scFv clones to BCMA-expressing HEK293 cells, as compared to control cells not expressing BCMA, was assessed by flow cytometry either with in vitro translated crude cell lysate or with bacterially-produced supernatant.

Assay [3] has as its target T3, human BCMA peptide 30SNTPPLTCQR39 (human).
T3 construct: Could be recognized in a linear form
T3 peptide: SNTPPLTCQR
Kind of assay: CLIPS peptide array, ELISA. The method, then:
as §1, §2, §3

Assay [4] addresses T4, BCMA-Fc (soluble human BCMA fused at its C-terminus to an Fc region of IgG) (human, UniProt Q02223 1-54).
T4 construct: also called hBCMA-Fc; hBMCA-Fc
T4 sequence: T1 sequence
As to the kind of experiment: flow cytometry, T cells transduced with O/SSE construct, CD4 gate, recombinant BCMA-Fc (rBCMA) staining against surrogate marker. As to the method: (§4) Lentiviral constructs containing anti-BCMA CAR-encoding polynucleotides with starting and optimized sequences, respectively, as described in Example 3, were transduced into T cells and transduced cells were analyzed for transduction (based on expression of a surrogate marker) and for CAR expression based on binding to recombinant BCMA-Fc fusion protein by flow cytometry.
For orientation: Flow cytometry measures light scatter and fluorescence of single cells or particles in a stream.

Assay [5] addresses T4, BCMA-Fc (soluble human BCMA fused at …). Kind of assay: flow cytometry, T cells transduced with O/SSE construct, CD8 gate, recombinant BCMA-Fc (rBCMA) staining against surrogate marker. As to the method: as §4
For assay [6] the target is unchanged. As to the kind of experiment: flow cytometry, T cells transduced with Non-SSE construct, CD4 gate, recombinant BCMA-Fc (rBCMA) staining against surrogate marker. As to the method: as §4
For assay [7] the target is unchanged. Kind of assay: flow cytometry, T cells transduced with Non-SSE construct, CD8 gate, recombinant BCMA-Fc (rBCMA) staining against surrogate marker. As to the method: as §4

B1: BCMA-26 scFv (scFv)
scFv: EVQLVESGGGLVKPGGSLRLSCAASGFTFSDYYMSWIRQAPGKGLEWVSYISSSGSTIYYADSVKGRFTISRDNAKNSLYLQMNSLRAEDTAVYYCAKVDGPPSFDIWGQGTMVTVSSGGGGSGGGGSGGGGSSYVLTQPPSVSVAPGQTARITCGANNIGSKSVHWYQQKPGQAPMLVVYDDDDRPSGIPERFSGSNSGNTATLTISGVEAGDEADYFCHLWDRSRDHYVFGTGTKLTVL
For the molecule B1, the binding result in assay [1] and in assay [2] was “binds” in each case.

B2: BCMA-9 scFv (scFv)
scFv: EVQLVQSGGGLVKPGGSLRLSCAASGFTFSDYYMSWIRQAPGKGLEWVSYISSSGSTIYYADSVKGRFTISRDNAKNSLYLQMNSLRAEDTAVYYCARVDGDYVDDYWGQGTLVTVSSGGGGSGGGGSGGGGSSYELTQPPSVSVAPGQTARVTCGANNIGSKSVHWYQQKPGQAPMLVVYDDDDRPSGIPERFSGSNSGNTATLTISGVEAGDEADYFCHVWDRSRDHYVFGTGTKLTVL
For the molecule B2, the binding result in assay [1] and in assay [2] was “binds” each time.

B3: BCMA-1 scFv (scFv)
scFv: QVQLVQSGGGLVQPGRSLRLSCTASGFTFGDYAMSWFRQAPGKGLEWVGFIRSKAYGGTTEYAASVKGRFTISRDDSKSIAYLQMNSLKTEDTAVYYCAAWSAPTDYWGQGTLVTVSSGGGGSGGGGSGGGGSDIVMTQSPDSLSVSPGERATISCKSSQSVLSTSNNKNYLAWYQQKPGQPPRLLLYWASTREAGVPDRFSGSGSGTDFTLTISSLQAEDVAVYYCQQYFSSPYTFGHGTKLEIK
As to B3, the binding result in assay [3] and in assay [2] was “binds” each time.

B4: BCMA-5 scFv (scFv)
scFv: QVQLVQSGGGLVQPGRSLRLSCTASGFTFGDYAMSWFRQAPGKGLEWVGFIRSKAYGGTTEYAASVKGRFTISRDDSKSIAYLQMNSLKTEDTAVYYCAAWSAPTDYWGQGTLVTVSSGGGGSGGGGSGGGGSDIVMTQSPDSLAVSLGERATINCKSSQSVLYSSNNKNYLAWYQQKPGQPPKLLIYWASTRESGVPDRFSGSGSGTDFTLTISSLQAEDVAVYYCQQYYSTPWTFGQGTKVDIK
In the case of B4, the binding result in assay [3] and in assay [2] was “binds” in each case.

B5: BCMA-23 scFv (scFv)
scFv: EVQLVESGGGLVKPGGSLRLSCAASGFTFSDYYMSWIRQAPGKGLEWVSYISSSGSTIYYADSVKGRFTISRDNAKNSLYLQMNSLRAEDTAVYYCAKVDGDYTEDYWGQGTLVTVSSGGGGSGGGGSGGGGSQSALTQPASVSGSPGQSITISCTGSSSDVGKYNLVSWYQQPPGKAPKLIIYDVNKRPSGVSNRFSGSKSGNTATLTISGLQGDDEADYYCSSYGGSRSYVFGTGTKVTVL
As to B5, the binding result in assay [3] is on record as “binds”.

B6: BCMA-25 scFv (scFv)
scFv: EVQLVQSGGGLVQPGRSLRLSCTASGFTFGDYAMSWFRQAPGKGLEWVGFIRSKAYGGTTEYAASVKGRFTISRDDSKSIAYLQMNSLKTEDTAVYYCAAWSAPTDYWGQGTLVTVSSGGGGSGGGGSGGGGSDIQMTQSPAFLSASVGDRVTVTCRASQGISNYLAWYQQKPGNAPRLLIYSASTLQSGVPSRFRGTGYGTEFSLTIDSLQPEDFATYYCQQSYTSRQTFGPGTRLDIK
As for B6, the binding result in assay [3] and in assay [2] was “binds” in each case.

B7: BCMA-52-LS CAR (other)
chain: SYELTQPPSASGTPGQRVTMSCSGTSSNIGSHSVNWYQQLPGTAPKLLIYTNNQRPSGVPDRFSGSKSGTSASLAISGLQSEDEADYYCAAWDGSLNGLVFGGGTKLTVLGSRGGGGSGGGGSGGGGSLEMAEVQLVQSGAEVKKPGESLKISCKGSGYSFTSYWIGWVRQMPGKGLEWMGIIYPGDSDTRYSPSFQGHVTISADKSISTAYLQWSSLKASDTAMYYCARYSGSFDNWGQGTLVTVSSESKYGPPCPPCPAPPVAGPSVFLFPPKPKDTLMISRTPEVTCVVVDVSQEDPEVQFNWYVDGVEVHNAKTKPREEQFQSTYRVVSVLTVLHQDWLNGKEYKCKVSNKGLPSSIEKTISKAKGQPREPQVYTLPPSQEEMTKNQVSLTCLVKGFYPSDIAVEWESNGQPENNYKTTPPVLDSDGSFFLYSRLTVDKSRWQEGNVFSCSVMHEALHNHYTQKSLSLSLGKMFWVLVVVGGVLACYSLLVTVAFIIFWVKRGRKKLLYIFKQPFMRPVQTTQEEDGCSCRFPEEEEGGCELRVKFSRSADAPAYQQGQNQLYNELNLGRREEYDVLDKRRGRDPEMGGKPRRKNPQEGLYNELQKDKMAEAYSEIGMKGERRRGKGHDGLYQGLSTATKDTYDALHMQALPPR
notes: Chimeric antigen receptor on T cells; also called BCMA-52-LS-O/SSE CAR; BCMA-52-L CAR
In the case of B7, the “% of cells in Q1 (rBCMA+ marker-)” value in assay [4] is 3.66%; in assay [5], 3.89%; in assay [6] it was 1.71%; in assay [7], 2.88%. Also, the “% of cells in Q3 (rBCMA- marker+)” value turned out to be 3.85% in assay [4], 5.38% in assay [5], 19.5% in assay [6] and 24.3% in assay [7]. In addition, the “% of cells in Q4 (rBCMA- marker-)” value stood at 22.9% in assay [4], 28.3% in assay [5], 42.5% in assay [6] and 41.1% in assay [7].

B8: BCMA-52-scFv-mFc (Fc fusion, not shown: a dimerising Fc or GST)
chain: SYELTQPPSASGTPGQRVTMSCSGTSSNIGSHSVNWYQQLPGTAPKLLIYTNNQRPSGVPDRFSGSKSGTSASLAISGLQSEDEADYYCAAWDGSLNGLVFGGGTKLTVLGSRGGGGSGGGGSGGGGSLEMAEVQLVQSGAEVKKPGESLKISCKGSGYSFTSYWIGWVRQMPGKGLEWMGIIYPGDSDTRYSPSFQGHVTISADKSISTAYLQWSSLKASDTAMYYCARYSGSFDNWGQGTLVTVSS
notes: also called BCMA-52 scFv fused with mouse Fc
In the case of B8, the binding result in assay [1] is recorded as “binds”.
